# The DeepSol protein solubility set
# Test: soluble on expression in E. coli; label from the status in PepcDB or PDB records
row,Sequence,soluble on expression in E. coli
1,MSVELWQQCVDLLRDELPSQQFNTWIRPLQVEAEGDELRVYAPNRFVLDWVNEKYLGRLLELLGERGEGQLPALSLLIGSKRSRTPRAAIVPSQTHVAPPPPVAPPPAPVQPVSAAPVVVPREELPPVTTAPSVSSDPYEPEEPSIDPLAAAMPAGAAPAVRTERNVQVEGALKHTSYLNRTFTFENFVEGKSNQLARAAAWQVADNLKHGYNPLFLYGGVGLGKTHLMHAVGNHLLKKNPNAKVVYLHSERFVADMVKALQLNAINEFKRFYRSVDALLIDDIQFFARKERSQEEFFHTFNALLEGGQQVILTSDRYPKEIEGLEERLKSRFGWGLTVAVEPPELETRVAILMKKAEQAKIELPHDAAFFIAQRIRSNVRELEGALKRVIAHSHFMGRPITIELIRESLKDLLALQDKLVSIDNIQRTVAEYYKIKISDLLSKRRSRSVARPRQVAMALSKELTNHSLPEIGVAFGGRDHTTVLHACRKIAQLRESDADIREDYKNLLRTLTT,not soluble
2,MSVIHPLQNLLTSRDGSLVFAIIKNCILSFKYQSPNHWEFAGKWSDDFDKIQESRNTTAKEQQGQSSENENENKKLKSNKGDSIKRTAAKVPSPGLGAPPIYSYIRNLRLTSDESRLIACADSDKSLLVFDVDKTSKNVLKLRKRFCFSKRPNAISIAEDDTTVIIADKFGDVYSIDINSIPEEKFTQEPILGHVSMLTDVHLIKDSDGHQFIITSDRDEHIKISHYPQCFIVDKWLFGHKHFVSSICCGKDYLLLSAGGDDKIFAWDWKTGKNLSTFDYNSLIKPYLNDQHLAPPRFQNENNDIIEFAVSKIIKSKNLPFVAFFVEATKCIIILEMSEKQKGDLALKQIITFPYNVISLSAHNDEFQVTLDNKESSGVQKNFAKFIEYNLNENSFVVNNEKSNEFDSAIIQSVQGDSNLVTKKEEIYPLYNVSSLRKHGEHYSHHHHHH,soluble
3,MSVPDKFFGRYQLDKSENFDEFLSSKGVNWFVRQMIKLAGLTKIISQNQEAGKYNMENLTSKKNTNYQAWELGKKFEAPGLDGNQHEITFDFKDEILSEHHIRLNEPETSAETYFYTIDDQNQLVMRMENNGIVCRRWFKRVEQK,not soluble
4,MSVSRYPVAIAGAGPAGSALALALQAQGVEALLLDRPLAQPFRIGESATPDVAGLLERLGAGHALDGQPGYHGNLSLWGSESPRLDHFLYRGRGHGWHLDRAGFDHALRQEAMARGVAVLGESGVDAIAPAAGGWRLRVRGLGEVEARVVVDAGGRRSPLAARLGISRCRLDRLQALACRVDGPGQLSGYSLVESAPYGWWYAAALPDGRALATLMTDQDLARELGLEHPANFLAAWRATRLLSERLPPPQRIDAAHAFAAHSGCVARAAGPGWICVGDALMGLDPLTSSGIACALGDALAAAPAIVAMLDGELAPARAYAKRADDCFRRYLAERRRHYRQENRWPEQPFWQRRAFSPAALAVPALEHHHHHH,not soluble
5,MSVTKLNNGKWQARVSYKDDDGNYKSVTHLEKRKTDAVEWETKTKNALLEGADLSRSTESLKHYFLDWIRIYKTDGVSRHTHELYMGNWRHIAAYFKDRPMSAIKRPDYQKFLNEFGRSHGIATSHKLHQQVHTAIKDAVADGILKRDFAYKAHVTGRPPKPVEEKYLTLSDYKKLRKYLIKTADYDHMTMLMMLFQLETGTRFEEAAGLTWDNLDLNNGIVHIKQQWDARRQTFRPTKGNGQADGDITIGPAYCRFMRSYRSTQKDYLELHEMKNPKNLVFWSKLGKIVGNGNANEELGRICNRLKINKVTTHAMRHTHASILILNHESLPYVQHRLRHQKLETTVNTYVHLIEEENGVSDKKATELMDEGF,not soluble
6,MSYEMNSLFSSNQQPLGGGPPPQQQSQQQQQPPQSLWSLQQFSQMGAPDNFGNHAVPFMPTLGMLNQYQNPHPLQMVPPQPLVTPSQVLPPSMAEQQRADTIHGFGVLTWLSAKAGLITCKDKMIISFQLKDFCDQMLNDLTSVLRVGFTLSFHAALNETSEYTATIVSPIYGPDADVLFANSQEVDLEAANPTPPNSKDAYSPALEQKAIPALLAIFQRHGLQQIQLSRSFSLHSQMSNCGDDELFRYVGTSSLKRRQFVERRTHLFRLQNDDSIILQYPAVYQAVYQLASYLLRRGGATSIQSLFDYYGSPDIMPEVRSHTGEGRQDFLNLLTAHNWVFALFPNRTYVSVRRNLPNYDYVGFIKQHFQEMDITRSQQMAYGQPPRGIQRTMSAQMGSSFATGRPQNLLMQHQHAMTPAATRSGSLWDSQSSLSQSGNSGDQWSPLFSPSTWSNNTNANPRLTSLTPLSSMNETLLSGVNYNSLLAMPPSAKNERSIGVQADDFLDRMSYNPIGRTGCTCQCQCGRGGAAIIGNTRGSSSRASGGSASPPSADGASQIDRFSPSNHAGSIGDRTLTAAALGVGLVDQQPAAPNHDGSANQPQRYYDPFGTADLLNGTRLNSLRIGN,not soluble
7,MSYSDLLRELAAAHAISSSYSGFGGAHVEVSDDTLVKTLRSLGVCFGNEDEPATDHEPLTGPMPSEDQIRYALQQRYDAEATRPLPRCVVAVEGDPYVFNVHVHDGAPADITITLEDGSTAEVTQVENWAPPREVDGITWGEASFQLPSDLPLG,not soluble
8,MSYSPPQPPQRQYSSTLNVDCVDGVYRSQQQVSPLTKQVNHLAYEIPKNKYANNPWNYAPEFLKVFGDLRVHIGGKAVFDCVLLGSPRPRVCWLFNEDKLRFSDVIIEDTADVCRLTIPYVQMHHFGTFTVLCENEVGRATAQAELLPLYE,not soluble
9,MTAAATTTVSTAAAMQTAALASLYSQAAVAIINNKGDVGKALKDLGTSDTVKQIVTSALTAGALNQMGADIAQLNSKVRTELFSSTGNQTIANLGGRLATNLSNAGISAGINTAVNGGSLKDNLGNAALGALVNSFQGEAASKIKTTFSDDYVAKQFAHALAGCVSGLVQGKCKDGAIGAAVGEIVAESILGGRNPATLSDAEKHKVISYSKIIAGSVAALNGGDLEHHHHHH,not soluble
10,MTAFIKFDGKKSSDFDLRIINDVEHDSSFYDVDQVKVPGRDGVVLKDNKRLEAIERSYPLRLYSKRRLTEVETDISNWLNVKGWKDLELSWEPDYIYKATHITPFSIKEVLRNFGRLKINFLIHPIKYLKTGKQEVPLVNGGTLQNPGNVQAKPILKIKGTGNGILTINDFETGLENVQSELVIDMERHLVYKDVLSAWDNIVRTERHRMPLFDVGQNKISWTGSFTITAVPNWGVKV,soluble
11,MTAGPQAHGHAPQTAGLAALEARLRQDLAWLELPAKPWTLPHALDGQPVLDVAIIGGGMAGLAAATALKHLGIGAVVFDRAPEGYEGPWATTARMETLRSPKQLTGPALGLPALTFRAWFEAQFGADAWETLDKIPRLQWMDYLRWYRRVLQLEVRNAHHVRTVQPRADGAVELTLDTPDAAGQRVLARRVVLATGRDGLGGPAVPAFAHRLPHRWWAHSSDAMDYGALAGKRVGVIGAGASAMDSAATALEAGAASVDLLIRRPDLPRINKGKGAGSPGLVHGHQHLPDAWKWRIRHYINAEQVPPPRGSTLRVSRHPNARFNLGCPVLGVDEHNGALHVTTPKGVFRLDFLIFSTGFRLDWAARPEFSALAPHVRLWRDRYTPRPGEEDAELSDSPDLGPAFELREKTPGQLPGLSRVHCFCYPASLTHGSVSGDIPAISEGARRLAQGIAGLLYQEDIEGHYAAMQAYAEPEIFGDEWTPAPPPQSEPAAAAASPAREAARLEHHHHHH,not soluble
12,MTALGLIETKGLLAAVEAADAMLKAADVRLLEKNLASGGLVTITVAGEVSAVRAAVDAGVSAIRRVNAASLVSEHVIARPDEGVSRVVSLVPPAAVPPAAPPVQAPAGDSGAQQPVQEAAEAEPQTGSTVEEQTPAAVEASPAPAAAAPRTETVRYEISQLKKMNVSRLRQVARGVSGLSIPREAVKSANKKDLIDAIINSYRQIEE,not soluble
13,MTAQDYLNGKLAAANGPLADDWKNLKELWEKKLWHQLTVLTRSLVKKPQFVASTDMHEFYRLFVAEWELRVNPLQLVEICISIAQNIATKDKQKSMEFLSKIGNVINKDKIAVARLHTGEIEARLENKDKNGQIIDLKSIRTQIDSTQHEVDSLVGVTEVHAPFYRVSSLYLREVGDFAGYYREALRYLGVEDANNLTTEQKQVHAVLLGFAALLGENVHNFGELLAHPILKSLEGTRERWIVDVLLAFNSGDLTRFFSLEGDWGGWDDLKKQKDFLTAKIRLMAVMELAVSRPTKARSVSFKEIATKCQIPFDEVEFLVMKALSKDLIRGDINQVEQVVYVTWVQPRVLDNPQIMQMATRISAWRNDVNSMEGIVSKEAREILTQN,not soluble
14,MTATEPTEKILPSPDYVQSLARGLAVIRCFDHRNQRRTLSDVARATDLTRATARRFLLTLVELGYVATDGSAFWLTPRVLELGYSYLSSLSLPEVAQPHLEKLSHKVHESSSVSILDGADIVYVARVPVSRIMTVGITIGTRLPAYATSMGRVLLAGLPDDELDAYLEKLDIQRLTERTITARDELKAAILAVRADGICVLDQELEAGLRSMAAPIRGASGLTVAAVNISTPAARYSLEDLHSDLIPSLRVTATDIEQDLATVNR,soluble
15,MTATIQNEKVIVSISDKGAELQSVRLKEDNTEYLWQGDSTYWGRRAPILFPIVGRLVDNTYYVDGKPYSLTQHGFARDLTFFVKEQSETKITYIVTSNEETLKKYPYEFELLVSYELNGQSVHITYEVNNPTSKEMFFSIGAHPGFNFPLLDGESFTDYHLSFNGSERLETSVLEGPYLSNKKQLIAENTTELPLTYDLFKNDALIFEHMNTNEISIRSHKHNKFVKVEFDGFPFVGVWTPGDNAPFLCIEPWYGIADEVNPAKDFKNKKGIQSLQANETFTCRYSITIGLEHHHHHH,soluble
16,MTATPVLALSEFQGAPAPIAGEQNAAPGDEAEEAAPEERTPLEIPMPDPLVDRTAVELKDDEIAAPDVVEPVEVLTDVSKIPVPVARMRELIVEAAASGDIERLRPLLGKGPTQTQVTATAGEDDPIAALKSLSGDQDGIEILAILLDVMSTGFVLADKGTPEEAYVWPYFAEKPLSSLTAPEKVDLFRLVTAGDFAGMEEFGTYNFYRVGITPDGKWKFFVAGD,not soluble
17,MTATSNSAPLAGGSLSSSATAQPPQPPPGHQQQHPLPQIYDSQMQYYYGSSMPNQPIPTYTAQNGAPQQFGTPPYYQDANGQFGQVPAQQQMMTAGHPYFYMAQPQQGGQHVAQSGQPQIFYYQQPLGQMAQQAAPMYFHPMQAASTPMLSEQMSMMPQIQSTNPQQSEQLRKSGAQISTTRTVPLTSSTPLPTSREYETVQRDRNRNSQSRYQCPIEHDDLPIDEISKITIDNHNDDTMSAEKENRFNKNRVEKLGRRGFAKPEVDSQLPHNFKTRLCMTHAAGINPCALGARCKFAHGLKELRASDIPTRYPNNKYKTKLCKNFARGGSGVCPYGLRCEFVHPSDTEFQNIPPYQRKMVEEHDSIPEDYVVARYQPRFMHTSGKATTPTKVTLKQRNVAGSMMCLSNTGRDLEAGGDFNHPEINENDLPPHLRRIRRGNPPVTRSRPSFSTKWTSVENLGLRGHY,not soluble
18,MTAVVNIAAYKFVSIANPADLREPMLEQAGQRQLKGTVLLAPEGINLFLAGAADAIEGFLRWLRADARFADLQAKYSESARMPFRKLLVKVKREIIRMDHPAIRPEAGRAPAVDAATLRRWLAQGRDDQGRELVMLDTRNAFEVEVGTFRGALDWRIERFTQFPQAVRDNQAALAGKTVVSFCTGGIRCEKAAIYMAEAGIEHVYQLEGGILKYFEETDGAGFDGACFVFDERVALDAALAPQALEHHHHHH,soluble
19,MTDAAIAEKDLGNAAYKQKDFEKAHVHYDKAIELDPSNITFYNNKAAVYFEEKKFAECVQFCEKAVEVGRETRADYKLIAKAMSRAGNAFQKQNDLSLAVQWFHRSLSEFRDPELVKKVKELEKQLKAAERLAYINPELAQEEKNKGNEYFKKGDYPTAMRHYNEAVKRDPENAILYSNRAACLTKLMEFQRALDDCDTCIRLDSKFIKGYIRKAACLVAMREWSKAQRAYEDALQVDPSNEEAREGVRNCLRSNDEDPEKAKERSLADPEVQEILRDPGMRMILEQMSNDPGAVREHLKNPEIFQKLMKLRDAGVIQMR,soluble
